Measured values reported in the supplement of paper PMC9876800.

System: peptide library, one residue held at a place counted from the S/T acceptor
Test: relative phosphorylation of the sub-library (ratio to the mean residue at this position); human; higher = residue favoured
Procedure, shortened: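 Purified recombinant kinases (human or orthologue constructs) were incubated in 384-well plates with biotinylated degenerate peptide sub-libraries, each fixing one residue at one position around a central Ser/Thr. Peptides were at 50 μM, with 50 μM ATP spiked with γ-32P-ATP, for 90 min under kinase-specific conditions. Spots on streptavidin membranes were phosphorimaged and quantified by densitometry. Relative sub-library phosphorylation is a ratio to the mean residue at that position.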

MELK, construct: aa1-340, sequence (Q14680 1-340, looked up): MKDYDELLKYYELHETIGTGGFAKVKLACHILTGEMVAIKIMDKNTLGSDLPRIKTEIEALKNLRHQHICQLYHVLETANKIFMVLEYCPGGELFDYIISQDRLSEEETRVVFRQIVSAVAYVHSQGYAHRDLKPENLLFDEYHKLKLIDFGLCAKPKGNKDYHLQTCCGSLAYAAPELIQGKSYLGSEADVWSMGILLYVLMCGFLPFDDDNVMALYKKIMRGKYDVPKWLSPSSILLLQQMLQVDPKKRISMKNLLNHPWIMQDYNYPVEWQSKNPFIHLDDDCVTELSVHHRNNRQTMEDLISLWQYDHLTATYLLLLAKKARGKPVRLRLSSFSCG
MASTL, construct: Full length, sequence (Q96GX5 whole entry, looked up): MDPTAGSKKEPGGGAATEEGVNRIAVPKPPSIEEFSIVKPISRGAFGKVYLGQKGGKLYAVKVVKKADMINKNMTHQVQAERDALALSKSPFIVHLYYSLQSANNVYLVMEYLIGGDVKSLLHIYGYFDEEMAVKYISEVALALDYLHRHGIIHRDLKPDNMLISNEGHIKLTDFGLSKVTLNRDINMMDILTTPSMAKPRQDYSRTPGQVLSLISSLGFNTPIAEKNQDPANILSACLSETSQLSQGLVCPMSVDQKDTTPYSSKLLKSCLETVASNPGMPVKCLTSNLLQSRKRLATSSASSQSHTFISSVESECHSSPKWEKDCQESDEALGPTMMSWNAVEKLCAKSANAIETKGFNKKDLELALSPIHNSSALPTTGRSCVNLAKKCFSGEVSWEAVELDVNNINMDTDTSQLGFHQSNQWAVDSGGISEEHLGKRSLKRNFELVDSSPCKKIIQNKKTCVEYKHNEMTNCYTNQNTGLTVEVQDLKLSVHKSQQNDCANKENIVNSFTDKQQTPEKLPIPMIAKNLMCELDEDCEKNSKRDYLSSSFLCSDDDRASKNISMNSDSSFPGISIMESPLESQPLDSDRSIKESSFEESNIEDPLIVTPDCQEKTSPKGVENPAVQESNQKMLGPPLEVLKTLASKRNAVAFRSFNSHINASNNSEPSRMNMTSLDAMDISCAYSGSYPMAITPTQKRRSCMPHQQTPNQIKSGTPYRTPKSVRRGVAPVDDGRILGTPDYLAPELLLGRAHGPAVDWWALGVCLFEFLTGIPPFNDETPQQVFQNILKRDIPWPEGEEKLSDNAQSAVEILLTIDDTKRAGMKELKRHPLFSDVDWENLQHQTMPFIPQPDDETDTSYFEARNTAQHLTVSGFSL
MOK, construct: aa1-343, sequence (Q9UQ07 1-343, looked up): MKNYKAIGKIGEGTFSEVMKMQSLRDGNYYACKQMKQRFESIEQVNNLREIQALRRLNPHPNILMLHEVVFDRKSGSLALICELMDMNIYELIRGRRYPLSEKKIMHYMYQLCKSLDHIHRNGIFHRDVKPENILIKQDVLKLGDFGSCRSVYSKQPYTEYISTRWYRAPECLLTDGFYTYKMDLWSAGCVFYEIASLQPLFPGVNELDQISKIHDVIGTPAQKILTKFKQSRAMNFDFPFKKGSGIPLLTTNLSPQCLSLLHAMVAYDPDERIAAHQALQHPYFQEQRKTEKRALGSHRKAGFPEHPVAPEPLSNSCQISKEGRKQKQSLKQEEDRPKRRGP

MASTL, construct: Full length (from UniProt Q96GX5)
relative phosphorylation
Conditions | at +1 | at +2 | at +3 | at +4 | at -1 | at -2 | at -3 | at -4 | at -5
A fixed | 0.775 | 1.04 | 0.823 | 1.03 | 0.921 | 0.862 | 0.89 | 1.04 | 1.22
D fixed | 0.64 | 0.706 | 0.711 | 0.972 | 0.826 | 0.719 | 0.63 | 0.69 | 0.66
E fixed | 0.62 | 0.693 | 0.766 | 0.951 | 0.769 | 0.611 | 0.679 | 0.717 | 0.639
F fixed | 1.95 | 1.38 | 1.3 | 0.962 | 0.948 | 1.74 | 1.13 | 1.02 | 1
G fixed | 1.59 | 0.711 | 1.14 | 0.867 | 1.46 | 1.13 | 1.02 | 1.2 | 1.28
H fixed | 0.772 | 0.99 | 0.949 | 1.07 | 1.01 | 1.51 | 1.43 | 1.31 | 1.47
I fixed | 1.21 | 1.23 | 1.19 | 0.878 | 0.543 | 0.585 | 0.66 | 0.696 | 0.841
K fixed | 0.534 | 0.531 | 0.573 | 0.841 | 0.87 | 0.579 | 0.927 | 0.956 | 0.889
L fixed | 1.06 | 0.959 | 1.1 | 0.941 | 1.06 | 0.579 | 0.715 | 0.656 | 0.941
M fixed | 1.71 | 1.15 | 1.15 | 1.02 | 1.25 | 0.846 | 1 | 0.938 | 0.94
N fixed | 0.789 | 0.95 | 0.749 | 1.05 | 1.06 | 1.16 | 1.03 | 1.34 | 1.05
P fixed | 0.664 | 0.65 | 0.704 | 1.31 | 1.59 | 0.804 | 1.01 | 0.965 | 1.07
Q fixed | 1.09 | 0.761 | 0.804 | 1.09 | 1.15 | 0.839 | 0.985 | 0.913 | 0.841
R fixed | 0.614 | 0.579 | 0.555 | 0.726 | 0.889 | 0.767 | 1.55 | 1 | 0.953
V fixed | 0.944 | 1.16 | 0.875 | 0.831 | 0.649 | 0.558 | 0.678 | 0.703 | 0.909
W fixed | 1.03 | 1.6 | 2.11 | 1.28 | 0.913 | 1.82 | 1.23 | 1.35 | 1.27
Y fixed | 1.01 | 1.9 | 1.5 | 1.18 | 1.1 | 1.9 | 1.42 | 1.49 | 1.03
pThr fixed | 1 | 0.912 | 0.984 | 1.27 | 0.833 | 0.827 | 0.939 | 0.844 | 0.94
pTyr fixed | 0.8 | 1.07 | 0.973 | 0.944 | 0.711 | 0.771 | 0.812 | 0.834 | 0.784

MELK, construct: aa1-340 (from UniProt Q14680)
relative phosphorylation
Conditions | at +1 | at +2 | at +3 | at +4 | at -1 | at -2 | at -3 | at -4 | at -5
A fixed | 1.02 | 0.961 | 0.744 | 0.748 | 0.777 | 1.24 | 0.757 | 1.12 | 0.927
D fixed | 0.349 | 0.324 | 0.902 | 0.634 | 0.495 | 0.251 | 0.225 | 0.47 | 0.446
E fixed | 0.447 | 0.274 | 0.436 | 0.558 | 0.469 | 0.305 | 0.256 | 0.658 | 0.392
F fixed | 2.31 | 0.923 | 1.21 | 0.987 | 0.78 | 1.07 | 0.478 | 0.674 | 1.18
G fixed | 0.949 | 0.79 | 0.855 | 1.02 | 0.711 | 0.78 | 0.707 | 1.24 | 0.884
H fixed | 0.994 | 1.02 | 1.47 | 1.04 | 1.25 | 1.33 | 1.18 | 1.11 | 0.871
I fixed | 0.511 | 1.64 | 0.77 | 1.26 | 0.783 | 0.667 | 0.347 | 0.669 | 1.13
K fixed | 1.38 | 0.858 | 0.938 | 1.03 | 1.89 | 1.63 | 2.74 | 2.08 | 1.49
L fixed | 0.752 | 1.79 | 1.02 | 1.84 | 1.07 | 0.681 | 0.454 | 0.761 | 1.76
M fixed | 1.14 | 1.68 | 0.986 | 1.1 | 1.1 | 0.951 | 0.484 | 0.903 | 1.22
N fixed | 0.837 | 0.873 | 1.48 | 0.988 | 1.19 | 1.09 | 0.742 | 1.02 | 0.711
P fixed | 0.171 | 0.598 | 0.553 | 1.23 | 1.07 | 0.419 | 0.751 | 1.01 | 1.03
Q fixed | 1.54 | 0.723 | 1.05 | 0.952 | 1.12 | 1.42 | 0.784 | 0.844 | 0.902
R fixed | 1.72 | 1.28 | 1.12 | 1.03 | 1.71 | 1.79 | 5.37 | 1.81 | 1.67
V fixed | 0.705 | 1.54 | 0.79 | 1.05 | 0.885 | 0.893 | 0.394 | 0.701 | 0.814
W fixed | 0.959 | 0.808 | 1.69 | 0.848 | 0.601 | 1.15 | 0.676 | 1.1 | 0.766
Y fixed | 1.22 | 0.935 | 1 | 0.673 | 1.09 | 1.33 | 0.653 | 0.831 | 0.806
pThr fixed | 0.647 | 0.364 | 0.33 | 0.662 | 0.311 | 0.354 | 0.33 | 0.438 | 0.508
pTyr fixed | 0.551 | 0.407 | 0.409 | 0.425 | 0.709 | 0.295 | 0.332 | 0.382 | 0.517

MKNK1, construct: Full length (D165-205) (from UniProt Q9BUB5)
relative phosphorylation
Conditions | at +1 | at +2 | at +3 | at +4 | at -1 | at -2 | at -3 | at -4 | at -5
A fixed | 0.571 | 0.643 | 0.663 | 0.758 | 0.958 | 0.862 | 0.744 | 0.882 | 1.25
D fixed | 0.289 | 0.373 | 0.434 | 0.925 | 0.355 | 0.324 | 0.281 | 0.361 | 0.43
E fixed | 0.603 | 0.351 | 0.429 | 0.903 | 0.342 | 0.279 | 0.315 | 0.37 | 0.404
F fixed | 1.41 | 0.677 | 0.771 | 0.706 | 0.395 | 0.433 | 0.392 | 0.676 | 0.727
G fixed | 0.464 | 0.534 | 1.49 | 0.967 | 1.12 | 0.736 | 1.22 | 1.3 | 0.945
H fixed | 0.892 | 1.83 | 1.23 | 1.13 | 0.897 | 0.748 | 1.04 | 1.12 | 0.866
I fixed | 1.05 | 0.875 | 0.597 | 0.687 | 0.304 | 0.372 | 0.286 | 0.625 | 1
K fixed | 1.04 | 1.03 | 2.18 | 1.82 | 3.23 | 2.45 | 3.62 | 2.16 | 1.58
L fixed | 0.991 | 0.907 | 1.01 | 0.722 | 0.602 | 0.519 | 0.394 | 0.751 | 1.2
M fixed | 1.86 | 0.997 | 0.886 | 0.805 | 0.619 | 0.395 | 0.494 | 0.784 | 0.97
N fixed | 0.651 | 0.817 | 0.725 | 1.12 | 0.905 | 1.03 | 0.96 | 1.07 | 0.872
P fixed | 0.345 | 0.387 | 0.806 | 1.3 | 1.87 | 0.55 | 1.4 | 1.28 | 1.25
Q fixed | 1.8 | 0.794 | 0.856 | 1.29 | 0.991 | 0.747 | 0.926 | 0.83 | 0.762
R fixed | 1.34 | 1.9 | 1.95 | 1.49 | 2.91 | 5.62 | 3.5 | 2.25 | 1.66
V fixed | 0.995 | 0.781 | 0.506 | 0.704 | 0.429 | 0.521 | 0.318 | 0.76 | 1.25
W fixed | 1.2 | 1.79 | 1.17 | 0.826 | 0.414 | 0.685 | 0.549 | 0.894 | 0.832
Y fixed | 1.49 | 2.32 | 1.3 | 0.845 | 0.655 | 0.725 | 0.557 | 0.891 | 1.01
pThr fixed | 0.668 | 0.629 | 0.564 | 1.11 | 0.278 | 0.387 | 0.511 | 0.639 | 0.677
pTyr fixed | 0.868 | 1.32 | 0.756 | 1.46 | 0.294 | 0.373 | 0.447 | 0.596 | 0.942

MOK, construct: aa1-343 (from UniProt Q9UQ07)
relative phosphorylation
Conditions | at +1 | at +2 | at +3 | at +4 | at -1 | at -2 | at -3 | at -4 | at -5
A fixed | 2.2 | 1.04 | 1.2 | 0.799 | 1.12 | 1.03 | 0.724 | 0.79 | 0.816
D fixed | 0.137 | 0.59 | 0.511 | 0.519 | 0.269 | 0.168 | 0.231 | 0.441 | 0.526
E fixed | 0.15 | 0.672 | 0.507 | 0.506 | 0.332 | 0.208 | 0.246 | 0.506 | 0.552
F fixed | 0.2 | 0.836 | 1.02 | 0.891 | 0.786 | 0.328 | 0.314 | 0.739 | 1.02
G fixed | 1.23 | 1.51 | 1.52 | 1.34 | 1.36 | 0.824 | 0.645 | 0.89 | 1.04
H fixed | 0.389 | 1.44 | 1.28 | 1.09 | 1.19 | 0.418 | 0.564 | 0.862 | 1.09
I fixed | 0.215 | 0.624 | 0.704 | 0.855 | 0.511 | 0.863 | 0.54 | 0.73 | 0.865
K fixed | 0.574 | 1.15 | 1.15 | 1.44 | 1.61 | 0.8 | 1.27 | 1.43 | 1.36
L fixed | 0.204 | 0.822 | 0.848 | 0.904 | 0.712 | 1.2 | 0.587 | 0.739 | 0.761
M fixed | 0.253 | 0.935 | 0.967 | 1.05 | 1.22 | 0.675 | 0.501 | 0.946 | 0.903
N fixed | 0.32 | 0.999 | 0.93 | 1.06 | 0.672 | 0.498 | 0.452 | 0.628 | 0.784
P fixed | 6.41 | 1.12 | 1.13 | 1.11 | 1.33 | 5.97 | 1.26 | 0.96 | 1.11
Q fixed | 0.567 | 1.21 | 0.857 | 0.964 | 1 | 0.629 | 0.563 | 0.818 | 0.916
R fixed | 3.21 | 1.58 | 1.53 | 1.74 | 2.2 | 1.81 | 7.98 | 4.34 | 2.3
V fixed | 0.515 | 0.551 | 0.668 | 0.801 | 0.631 | 0.918 | 0.441 | 0.622 | 0.622
W fixed | 0.215 | 0.884 | 0.985 | 1.02 | 0.976 | 0.331 | 0.316 | 0.811 | 1.02
Y fixed | 0.21 | 1.04 | 1.19 | 0.921 | 1.08 | 0.323 | 0.377 | 0.745 | 1.31
pThr fixed | 0.333 | 0.394 | 0.486 | 0.512 | 0.236 | 0.431 | 0.358 | 0.532 | 0.775
pTyr fixed | 0.334 | 0.447 | 0.651 | 0.45 | 0.354 | 0.268 | 0.329 | 0.473 | 0.804
